Assay results as given in patent US20250382622A1 (UNIVERSIT T BERN, published 2025).

Molecular target: T1, human Claudin-3 (human, UniProt O15551 1-220)
T1 sequence: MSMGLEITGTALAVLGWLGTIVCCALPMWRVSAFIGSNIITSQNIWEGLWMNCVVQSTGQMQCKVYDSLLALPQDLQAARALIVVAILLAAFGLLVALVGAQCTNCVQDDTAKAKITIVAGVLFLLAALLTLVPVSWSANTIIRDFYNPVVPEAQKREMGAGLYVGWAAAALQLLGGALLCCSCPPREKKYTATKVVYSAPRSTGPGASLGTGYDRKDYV
Assay: cell-based or functional assay

B1: GalNAc functionalized UB-VS003 (antibody, mouse IgG2a, kappa, V domains shown)
VH: EVQLQQSGPELVKPGGSMKISCKASGYSFTGYTMNWVKQSHGKNLEWIGLINPYNDGTNYNQKFKGKATLTVDKSSSTAYMELLSLTSEDSAVYYCSKKGGGYGGTWFAYWGQGTLVTVSA
VL: DIVMSQSPSSLAVSVGEKVTMSCKSSPSLLYSNNQKNYLAWYQQKPGQSPKLLIYWASTRESGVPDRFTGSGSGTDFTLTISSVKAEDLAVYYCQQYYSFPYTFGGGTKLEIKR
modifications: reacted with 25 equivalents of DBCO-PEG4-NHS, then with 100 equivalents of Trebler GalNAc-Azide; modified residues and chain not stated
Question: For B1, which “claudin-3/beta-actin ratio by western blot, human hepatocytes, 24 h, 1 nM antibody” value is on record?
Answer: The value was ~45 % of control.

Question: And the “claudin-3/beta-actin ratio by western blot, human hepatocytes, 24 h, 30 nM antibody” value?
Answer: Its value is ~30 % of control.

Question: What about the “claudin-3/beta-actin ratio by western blot, human hepatocytes, 24 h, 100 nM antibody” value of the same binder?
Answer: Its value is ~10 % of control.
